B1: Oxysterols receptor LXR-alpha (Homo sapiens), Q13133 (parent)
chain: MSLWLGAPVPDIPPDSAVELWKPGAQDASSQAQGGSSCILREEARMPHSAGGTAGVGLEAAEPTALLTRAEPPSEPTEIRPQKRKKGPAPKMLGNELCSVCGDKASGFHYNVLSCEGCKGFFRRSVIKGAHYICHSGGHCPMDTYMRRKCQECRLRKCRQAGMREECVLSEEQIRLKKLKRQEEEQAHATSLPPRASSPPQILPQLSPEQLGMIEKLVAAQQQCNRRSFSDRLRVTPWPMAPDPHSREARQQRFAHFTELAIVSVQEIVDFAKQLPGFLQLSREDQIALLKTSAIEVMLLETSRRYNPGSESITFLKDFSYNREDFAKAGLQVEFINPIFEFSRAMNELQLNDAEFALLIAISIFSADRPNVQDQLQVERLQHTYVEALHAYVSIHHPHDRLMFPRMLMKLVSLRTLSSVHSEQVFALRLQDKKLPPLLSEIWDVHE
B2: Retinoic acid receptor RXR-alpha (Homo sapiens), P19793 (parent)
chain: MDTKHFLPLDFSTQVNSSLTSPTGRGSMAAPSLHPSLGPGIGSPGQLHSPISTLSSPINGMGPPFSVISSPMGPHSMSVPTTPTLGFSTGSPQLSSPMNPVSSSEDIKPPLGLNGVLKVPAHPSGNMASFTKHICAICGDRSSGKHYGVYSCEGCKGFFKRTVRKDLTYTCRDNKDCLIDKRQRNRCQYCRYQKCLAMGMKREAVQEERQRGKDRNENEVESTSSANEDMPVERILEAELAVEPKTETYVEANMGLNPSSPNDPVTNICQAADKQLFTLVEWAKRIPHFSELPLDDQVILLRAGWNELLIASFSHRSIAVKDGILLATGLHVHRNSAHSAGVGAIFDRVLTELVSKMRDMQMDKTELGCLRAIVLFNPDSKGLSNPAEVEALREKVYASLEAYCKHKYPEQPGRFAKLLLRLPALRSIGLKCLEHLFFFKLIGDTPIDTFLMEMLEAPHQMT

Variants of: B1
Settings: with ncoa1_human NCOA1, Q15788
Target sequence in this assay (Q15788 whole entry): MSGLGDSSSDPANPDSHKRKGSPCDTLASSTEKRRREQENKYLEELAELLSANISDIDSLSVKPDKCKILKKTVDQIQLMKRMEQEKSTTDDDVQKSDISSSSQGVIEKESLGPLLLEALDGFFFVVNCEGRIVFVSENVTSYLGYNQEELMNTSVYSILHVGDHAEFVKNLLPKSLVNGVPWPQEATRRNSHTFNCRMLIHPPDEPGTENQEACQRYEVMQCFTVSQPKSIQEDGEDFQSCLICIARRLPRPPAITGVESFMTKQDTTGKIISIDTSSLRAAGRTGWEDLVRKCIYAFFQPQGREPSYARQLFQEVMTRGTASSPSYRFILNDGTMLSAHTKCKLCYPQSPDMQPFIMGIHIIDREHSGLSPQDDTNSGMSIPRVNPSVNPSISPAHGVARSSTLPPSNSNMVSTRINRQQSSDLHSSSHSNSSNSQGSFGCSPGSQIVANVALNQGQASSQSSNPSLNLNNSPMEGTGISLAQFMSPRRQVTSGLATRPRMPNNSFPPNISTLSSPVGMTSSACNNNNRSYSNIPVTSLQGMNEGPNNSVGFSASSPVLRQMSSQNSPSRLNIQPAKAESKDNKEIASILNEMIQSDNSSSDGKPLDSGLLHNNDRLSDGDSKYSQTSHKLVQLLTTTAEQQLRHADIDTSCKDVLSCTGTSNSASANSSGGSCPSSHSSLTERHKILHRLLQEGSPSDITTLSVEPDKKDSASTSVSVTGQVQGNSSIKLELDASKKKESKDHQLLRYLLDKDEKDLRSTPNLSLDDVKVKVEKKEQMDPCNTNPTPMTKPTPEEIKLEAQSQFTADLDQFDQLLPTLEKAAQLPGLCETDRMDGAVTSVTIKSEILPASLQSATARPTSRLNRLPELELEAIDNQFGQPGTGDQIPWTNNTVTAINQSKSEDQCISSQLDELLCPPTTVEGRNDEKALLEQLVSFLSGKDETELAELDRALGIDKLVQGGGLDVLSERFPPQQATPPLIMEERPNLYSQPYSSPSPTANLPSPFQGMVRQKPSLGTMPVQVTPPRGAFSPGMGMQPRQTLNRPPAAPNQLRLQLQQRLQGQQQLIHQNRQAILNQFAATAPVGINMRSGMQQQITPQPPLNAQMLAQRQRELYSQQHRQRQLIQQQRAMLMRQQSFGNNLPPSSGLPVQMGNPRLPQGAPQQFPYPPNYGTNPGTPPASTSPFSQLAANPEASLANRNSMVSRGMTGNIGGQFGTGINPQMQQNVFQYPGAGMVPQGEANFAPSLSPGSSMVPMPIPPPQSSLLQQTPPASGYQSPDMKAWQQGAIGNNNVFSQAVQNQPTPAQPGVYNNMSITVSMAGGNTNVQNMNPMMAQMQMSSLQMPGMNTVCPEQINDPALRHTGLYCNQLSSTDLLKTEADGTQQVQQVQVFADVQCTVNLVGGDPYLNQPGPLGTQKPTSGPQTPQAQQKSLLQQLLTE

Variant | effect of a mutation on the interaction
MSLWLGAPVPDIPPDSAVELWKPGAQDASSQAQGGSSCILREEARMPHSAGGTAGVGLEAAEPTALLTRAEPPSEPTEIRPQKRKKGPAPKMLGNELCSVCGDKASGFHYNVLSCEGCKGFFRRSVIKGAHYICHSGGHCPMDTYMRRKCQECRLRKCRQAGMREECVLSEEQIRLKKLKRQEEEQAHATSLPPRASSPPQILPQLSPEQLGMIEKLVAAQQQCNRRSFSDRLRVTPWPMAPDPHSREARQQRFAHFTELAIVSVQEIVDFAKQLPGFLQLSREDQIALLKTSAIEVMLLETSRRYNPGSESITFLKDFSYNREDFAKAGLQVEFINPIFEFSRAMNELQLNDAEFALLIAISIFSADRPNVQDQLQVERLQHTYVEALHAYVSIHHPHDRLMFPRMLMKLVSLRTLSSVHSEQVFALRLQDKKLPPLLSEAWDVHE [I442A] | disrupting interaction
MSLWLGAPVPDIPPDSAVELWKPGAQDASSQAQGGSSCILREEARMPHSAGGTAGVGLEAAEPTALLTRAEPPSEPTEIRPQKRKKGPAPKMLGNELCSVCGDKASGFHYNVLSCEGCKGFFRRSVIKGAHYICHSGGHCPMDTYMRRKCQECRLRKCRQAGMREECVLSEEQIRLKKLKRQEEEQAHATSLPPRASSPPQILPQLSPEQLGMIEKLVAAQQQCNRRSFSDRLRVTPWPMAPDPHSREARQQRFAHFTELAIVSVQEIVDFAKQLPGFLQLSREDQIALLKTSAIEVMLLETSRRYNPGSESITFLKDFSYNREDFAKAGLQVEFINPIFEFSRAMNELQLNDAEFALLIAISIFSADRPNVQDQLQVERLQHTYVEALHAYVSIHHPHDRLMFPRMLMKLVSLRTLSSVHSEQVFALRLQDKKLPPLLSAIWDVHE [E441A] | disrupting interaction

Variants of: B1
Settings: with ncoa1_human NCOA1, Q15788
Remark: another data set of the same source
Target sequence in this assay (Q15788 whole entry): as the sequence (Q15788 whole entry) above

Variant | effect of a mutation on the interaction
MSLWLGAPVPDIPPDSAVELWKPGAQDASSQAQGGSSCILREEARMPHSAGGTAGVGLEAAEPTALLTRAEPPSEPTEIRPQKRKKGPAPKMLGNELCSVCGDKASGFHYNVLSCEGCKGFFRRSVIKGAHYICHSGGHCPMDTYMRRKCQECRLRKCRQAGMREECVLSEEQIRLKKLKRQEEEQAHATSLPPRASSPPQILPQLSPEQLGMIEKLVAAQQQCNRRSFSDRLRVTPWPMAPDPHSREARQQRFAHFTELAIVSVQEIVDFAAQLPGFLQLSREDQIALLKTSAIEVMLLETSRRYNPGSESITFLKDFSYNREDFAKAGLQVEFINPIFEFSRAMNELQLNDAEFALLIAISIFSADRPNVQDQLQVERLQHTYVEALHAYVSIHHPHDRLMFPRMLMKLVSLRTLSSVHSEQVFALRLQDKKLPPLLSEIWDVHE [K273A] | disrupting interaction

Variants of: B2
Settings: with ncoa1_human NCOA1, Q15788
Target sequence in this assay (Q15788 whole entry): as the sequence (Q15788 whole entry) above

Variant | effect of a mutation on the interaction
MDTKHFLPLDFSTQVNSSLTSPTGRGSMAAPSLHPSLGPGIGSPGQLHSPISTLSSPINGMGPPFSVISSPMGPHSMSVPTTPTLGFSTGSPQLSSPMNPVSSSEDIKPPLGLNGVLKVPAHPSGNMASFTKHICAICGDRSSGKHYGVYSCEGCKGFFKRTVRKDLTYTCRDNKDCLIDKRQRNRCQYCRYQKCLAMGMKREAVQEERQRGKDRNENEVESTSSANEDMPVERILEAELAVEPKTETYVEANMGLNPSSPNDPVTNICQAADKQLFTLVEWAARIPHFSELPLDDQVILLRAGWNELLIASFSHRSIAVKDGILLATGLHVHRNSAHSAGVGAIFDRVLTELVSKMRDMQMDKTELGCLRAIVLFNPDSKGLSNPAEVEALREKVYASLEAYCKHKYPEQPGRFAKLLLRLPALRSIGLKCLEHLFFFKLIGDTPIDTFLMEMLEAPHQMT [K284A] | disrupting interaction

Source: IntAct's records for PubMed 20682316
